Consider five molecules from publication PMC9190012, “Heparin activation of protein Z-dependent protease inhibitor (ZPI) allosterically blocks protein Z activation through an extended heparin-binding site” (The Journal of Biological Chemistry, 2022).

Holding throughout (assay type): biochemical
Assay [1] deals with T1, FXa (Homo sapiens, UniProt P00742).
T1 construct: purchased Enzyme Research Laboratories
As to the kind of experiment: PZ-accelerated ZPI–FXa reactions: kinetics and stoichiometry of inhibition. Conditions: for SI / ka,app × SI / ka,app × SI relative to WT: PZ-accelerated; for ka,app: equimolar PZ, 25 μM phospholipid, 5 mM CaCl2, pH 7.4, 25 °C; for PZ enhancement: ratio of PZ-accelerated to unaccelerated ka,app × SI. The procedure:
(§1) Apparent second-order rate constants for unaccelerated and H50-accelerated ZPI–FXa reactions were measured in the absence and presence of the optimal H50 concentration under pseudo–first-order conditions by analyzing full ZPI–FXa reaction progress curves over the ZPI concentration range of 10 to 900 nM with ∼0.5 nM FXa. Full reaction progress curves were also measured for ZPI–FXa reactions in the presence of PZ equimolar with ZPI, 25 μM lipid, and 5 mM CaCl2, as a function of the ZPI concentration in the range of 10 to 40 nM. Identical reaction mixtures were quenched at varying reaction times with substrate, and the time course of protease inactivation was measured from the decrease in initial rates of substrate hydrolysis. The first-order rate of decrease in protease activity with time was computer fit by a single exponential decay function with a nonzero end point and kobs obtained from the fitted exponential decay constant. Apparent second-order association rate constants (ka,app) were obtained from the slopes of linear plots of kobs versus the ZPI concentration according to the equation, kobs=kd+ka,app × [ZPI]0
(§2) In which kd represents the rate constant for ZPI–FXa complex dissociation and [ZPI]o is the total ZPI concentration. kd was fixed at the experimentally determined value of 10^−4 s^−1 for WT and ZPI mutants as described ([18]).
(§3) Fixed concentrations of FXa (50–100 nM FXa) were reacted with increasing concentrations of ZPI, ranging from a approximately threefold to sevenfold molar excess, in the absence of cofactors or in the presence of either 1 μM H50 or PZ equimolar with ZPI, 25 μM lipid, and 5 mM CaCl2, in kinetics buffer at 25 °C in reaction volumes of 50 μl. After allowing sufficient time to reach a reaction end point, based on measured second-order associate rate constants (∼5–30 min), remaining proteolytic activity was measured by reacting an aliquot (5–20 μl) of the reaction mixtures with 1 ml of 100 μM Spectrozyme fXa (American Diagnostica) containing 50 μg/ml Polybrene and 5 mM EDTA and monitoring the rate of absorbance change at 405 nm. The apparent SI was determined from the fitted abscissa intercept of a linear plot of residual protease activity against the molar ratio of inhibitor to protease ([18]). Because the ZPI–PZ complex dissociates to a small extent over the reaction time, apparent SIs depend on the time of incubation. To correct for such complex dissociation, apparent SIs were multiplied by the factor, exp (−kd × t), where kd is the measured complex dissociation rate constant of 10^−4 s^−1 and t the fixed reaction time. Simulations verified the validity of this correction for small extents of dissociation. Reported SIs are average values of at least two independent measurements at different reaction times.

In assay [2] the target is T1, FXa. As to the kind of experiment: Unaccelerated ZPI–FXa reactions: kinetics and stoichiometry of inhibition. Conditions: for ka,app: absence of PZ, 2.5 mM CaCl2, pH 7.4, 25 °C. The procedure:
as §1, §2, §3

In assay [3] the target is T1, FXa. Kind of assay: H50 heparin-accelerated ZPI–FXa reactions: kinetics and stoichiometry of inhibition. Conditions: for SI / ka,app × SI / ka,app × SI relative to WT: 1 μM H50; for ka,app: 1 μM H50, 2.5 mM CaCl2, pH 7.4, 25 °C; for H50 rate enhancement: ratio of heparin-accelerated to unaccelerated ka,app × SI. How it is done:
Heparin accelerating effects on the kinetics of ZPI–FXa reactions were evaluated as a function of heparin concentration under pseudo–first-order conditions (i.e., with a large molar excess of inhibitor over protease) by incubating reaction mixtures of 100 μl containing 70 nM ZPI and ∼0.5 nM FXa in the absence or presence of varying levels of H50 ranging from 10^−9 to 10^−4 M in 20 mM Tris buffer (pH 7.4), 0.1 M NaCl, 0.1% PEG 8000, 0.1 mg/ml BSA, and 2.5 mM CaCl2 at 25 °C for reaction times of 2 to 5 min. Reactions were quenched by adding 1 ml of 50 μM Pefafluor FXa substrate (Centerchem, Inc) containing 50 μg/ml polybrene and 5 mM EDTA. The initial linear rate of substrate hydrolysis was monitored at an excitation wavelength of 380 nm and an emission wavelength of 440 nm. The observed pseudo–first-order rate constant for reactions (kobs) was calculated from the equation, kobs=In([vo-v∞]/[vt-v∞])/t
where vt and v∞ are the initial velocities of protease hydrolysis of the substrate after reaction with ZPI for the fixed reaction time and after reaching the reaction end point, respectively, vo is the velocity measured in control reactions without ZPI, and t is the fixed reaction time. The dependence of kobs on heparin concentration was computer fit by nonlinear least squares analysis by the ternary complex bridging model equation ([10]).
as §1, §2
as §3, with “Simulations verified the validity of this correction for small extents of dissociation. Reported SIs are average values of at least two independent measurements at different reaction times.” left out

Where a chain is given by its changes, count along the chain named. In names and notes the source's numbering stands.

T1 sequence (P00742 235-488 limits assumed): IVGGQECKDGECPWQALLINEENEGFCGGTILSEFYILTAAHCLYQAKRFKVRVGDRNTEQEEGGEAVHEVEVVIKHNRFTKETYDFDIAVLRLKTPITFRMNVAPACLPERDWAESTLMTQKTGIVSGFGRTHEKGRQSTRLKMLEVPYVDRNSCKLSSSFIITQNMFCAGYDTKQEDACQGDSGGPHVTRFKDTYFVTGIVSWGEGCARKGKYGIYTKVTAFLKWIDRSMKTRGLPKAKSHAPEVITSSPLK
T1 sequence (P00742 41-179 limits assumed): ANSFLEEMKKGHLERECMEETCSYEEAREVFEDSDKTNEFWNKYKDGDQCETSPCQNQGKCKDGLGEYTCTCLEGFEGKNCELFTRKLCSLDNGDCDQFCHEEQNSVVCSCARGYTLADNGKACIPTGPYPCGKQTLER

B1: K284A/R310A: ZPI helix H site double mutant (protein, UniProt Q9UK55 22-444, looked up, variant K284A R310A)
Protein Z-dependent protease …: LAPSPQSPETPAPQNQTSRVVQAPKEEEEDEQEASEEKASEEEKAWLMASRQQLAKETSNFGFSLLRKISMRHDGNMVFSPFGMSLAMTGLMLGATGPTETQIKRGLHLQALKPTKPGLLPSLFKGLRETLSRNLELGLTQGSFAFIHKDFDVKETFFNLSKRYFDTECVPMNFRNASQAKRLMNHYINKETRGKIPKLFDEINPETKLILVDYILFKGKWLTPFDPVFTEVDTFHLDKYKTIKVPMMYGAGKFASTFDKNFRCHVLKLPYQGNATMLVVLMEAMGDHLALEDYLTTDLVETWLRNMKTANMEVFFPKFKLDQKYEMHELLRQMGIRRIFSPFADLSELSATGRNLQVSRVLQRTVIEVDERGTEAVAGILSEITAYSMPPVIKVDRPFHFMIYEETSGMLLFLGRVVNPTLL
Regarding B1, in the assay with FXa [1], the SI was found to be 3.3 ± 0.1 moles ZPI/mole FXa, the “ka,app × SI” value is 2.1 ± 0.2 × 10^7 M^−1 s^−1, the “ka,app × SI relative to WT” value was “(0.48)” and the “ka,app” value is given as 6.4 ± 0.4 × 10^6 M^−1 s^−1. In addition, the PZ enhancement in the assay with FXa [1] was found to be 3317. For the same molecule, in the assay with FXa [2], the SI was determined as 1.9 ± 0.2 moles ZPI/mole FXa, the “ka,app × SI” value is listed as 6.3 ± 1.3 × 10^3 M^−1 s^−1, the “ka,app × SI relative to WT” value is on record as “(0.39)” and the “ka,app” value was 3.3 ± 0.3 × 10^3 M^−1 s^−1. Also, in the assay with FXa [3], the SI was found to be 1.9 ± 0.1 moles ZPI/mole FXa, the “ka,app × SI” value is on record as 3.7 ± 0.4 × 10^5 M^−1 s^−1, the “ka,app × SI relative to WT” value is reported as “(0.31)” and the “ka,app” value is given as 2.0 ± 0.1 × 10^5 M^−1 s^−1. Also, in the assay with FXa [3], the H50 rate enhancement is reported as 59 fold.

B2: K104A/R105A/K113A/K116A/K125A/R128A: ZPI mutant of the six basic residues in the helix C/D site (protein, UniProt Q9UK55 22-444, looked up, variant K104A R105A K113A K116A K125A R128A)
Protein Z-dependent protease …: B1 Protein Z-dependent protease … with K104A, R105A, K113A, K116A, K125A, R128A, A284K, A310R
Regarding B2, in the assay with FXa [1], the SI came to 7.7 ± 0.1 moles ZPI/mole FXa, the “ka,app × SI” value is reported as 8.5 ± 0.9 × 10^6 M^−1 s^−1, the “ka,app × SI relative to WT” value is “(0.19)” and the “ka,app” value is 1.1 ± 0.1 × 10^6 M^−1 s^−1. For the same molecule, the PZ enhancement with FXa [1] amounted to 904. In the assay with FXa [2], the SI was found to be 3.4 ± 0.4 moles ZPI/mole FXa, the “ka,app × SI” value was 9.4 ± 1.6 × 10^3 M^−1 s^−1, the “ka,app × SI relative to WT” value is “(0.59)” and the “ka,app” value is given as 2.8 ± 0.1 × 10^3 M^−1 s^−1. Moreover, in the assay with FXa [3], the SI is reported as 7.8 ± 2.0 moles ZPI/mole FXa, the “ka,app × SI” value is listed as 6.6 ± 2.7 × 10^4 M^−1 s^−1, the “ka,app × SI relative to WT” value is “(0.06)” and the “ka,app” value is listed as 8.5 ± 1.3 × 10^3 M^−1 s^−1. In the assay with FXa [3], the H50 rate enhancement is reported as 7.0 fold.

B3: K253A/K260A/R263A/R305A/K308A/R310A: ZPI helix H site sextuple mutant (protein, UniProt Q9UK55 22-444, looked up, variant K253A K260A R263A R305A K308A R310A)
Protein Z-dependent protease …: B1 Protein Z-dependent protease … with K253A, K260A, R263A, A284K, R305A, K308A
As for B3, in the assay with FXa [1], the SI is on record as 7.4 ± 0.3 moles ZPI/mole FXa, the “ka,app × SI” value is reported as 2.5 ± 0.2 × 10^7 M^−1 s^−1, the “ka,app × SI relative to WT” value was “(0.57)” and the “ka,app” value was 3.4 ± 0.1 × 10^6 M^−1 s^−1. Also, the PZ enhancement with FXa [1] was 8620. Further, in the assay with FXa [2], the SI is listed as 3.2 ± 0.1 moles ZPI/mole FXa, the “ka,app × SI” value is recorded as 2.9 ± 0.2 × 10^3 M^−1 s^−1, the “ka,app × SI relative to WT” value is given as “(0.18)” and the “ka,app” value was 9.2 ± 0.6 × 10^2 M^−1 s^−1. Besides, in the assay with FXa [3], the SI worked out at 4.0 ± 0.2 moles ZPI/mole FXa, the “ka,app × SI” value was 2.6 ± 0.3 × 10^4 M^−1 s^−1, the “ka,app × SI relative to WT” value is reported as “(0.02)” and the “ka,app” value is 6.4 ± 0.5 × 10^3 M^−1 s^−1.

B4: D298K/E301R/T302K/T309K: ZPI mutant with the helix H heparin-binding site of PCI grafted onto homologous ZPI residues (protein, UniProt Q9UK55 22-444, looked up, variant D298K E301R T302K T309K)
Protein Z-dependent protease …: B1 Protein Z-dependent protease … with A284K, D298K, E301R, T302K, T309K, A310R
Take B4: in the assay with FXa [1], the SI is 2.2 ± 0.1 moles ZPI/mole FXa, the “ka,app × SI” value was 1.8 ± 0.3 × 10^7 M^−1 s^−1, the “ka,app × SI relative to WT” value is given as “(0.41)” and the “ka,app” value was 8.4 ± 1.2 × 10^6 M^−1 s^−1. Besides, the PZ enhancement with FXa [1] is recorded as 692. Moreover, in the assay with FXa [2], the SI was determined as 3.6 ± 0.3 moles ZPI/mole FXa, the “ka,app × SI” value was 2.6 ± 0.2 × 10^4 M^−1 s^−1, the “ka,app × SI relative to WT” value was “(1.6)” and the “ka,app” value is listed as 7.3 ± 0.1 × 10^3 M^−1 s^−1. Moreover, in the assay with FXa [3], the SI stood at 4.6 ± 0.1 moles ZPI/mole FXa, the “ka,app × SI” value is given as 3.9 ± 0.2 × 10^6 M^−1 s^−1, the “ka,app × SI relative to WT” value is recorded as “(3.2)” and the “ka,app” value is listed as 8.3 ± 0.4 × 10^5 M^−1 s^−1. The H50 rate enhancement with FXa [3] stood at 150 fold.

B5: K260A/R263A/R305A/K308A/R310A: ZPI helix H site quintuple mutant (protein, UniProt Q9UK55 22-444, looked up, variant K260A R263A R305A K308A R310A)
Protein Z-dependent protease …: B1 Protein Z-dependent protease … with K260A, R263A, A284K, R305A, K308A
As for B5, in the assay with FXa [1], the SI amounted to 4.5 ± 0.2 moles ZPI/mole FXa, the “ka,app × SI” value is 1.8 ± 0.1 × 10^7 M^−1 s^−1, the “ka,app × SI relative to WT” value was “(0.41)” and the “ka,app” value is 3.9 ± 0.1 × 10^6 M^−1 s^−1. Further, the PZ enhancement with FXa [1] is reported as 2400. Besides, in the assay with FXa [2], the SI was found to be 2.9 ± 0.3 moles ZPI/mole FXa, the “ka,app × SI” value is recorded as 7.5 ± 0.9 × 10^3 M^−1 s^−1, the “ka,app × SI relative to WT” value is listed as “(0.47)” and the “ka,app” value is 2.6 ± 0.1 × 10^3 M^−1 s^−1. Further, in the assay with FXa [3], the SI was 2.9 ± 0.4 moles ZPI/mole FXa, the “ka,app × SI” value is 4.9 ± 0.7 × 10^4 M^−1 s^−1, the “ka,app × SI relative to WT” value is listed as “(0.04)” and the “ka,app” value is listed as 1.7 ± 0.1 × 10^4 M^−1 s^−1. Moreover, the H50 rate enhancement with FXa [3] was 6.5 fold.
